Laboratory results reported in article PMC4176176, “The CRISPR-associated Cas4 protein Pcal_0546 from Pyrobaculum calidifontis contains a [2Fe-2S] cluster: crystal structure and nuclease activity” (Nucleic Acids Research, 2014).

Biological target: the molecule itself
Experiment: SEC; size-exclusion chromatography of the purified protein on a Superdex S200 10/300 GL column

B1: Cas4 protein SSO1391 from Sulfolobus solfataricus (enzyme, UniProt Q97YD4 1-291, looked up)
chain: MFFTHSDMLLLSKRIKKLPKNVDEELRGWNWSEPPVYTRSLSQVSISEMVYCSTLRNVYLKVKGFRGEIGRQILQGSLIHTIYAIGIEAIKRFIYSRESIDGSTLRTLMGDEFYSLLKDLREEEGIYAKVLWDHITNIYSAELDRVRSKFTNLTRDSLVSQVVPFYVEFPVDGSLLGLTNLRVDAFIPHLPLIAEMKTGKYRYTHELSLAGYALAIESQYEIPIDFGYLCYVTVTEKEVKNNCKLIPISDSLRSEFLDMRDKAQDIMDKGVDPGIAKDCESDCMFYKVCHP
notes: Cas4 protein SSO1391 (DUF911 family), Sulfolobus solfataricus; predicted molecular mass 35.9 kDa
  stoichiometry N: 2
